Test results: the RNAGym collection of RNA variant scans (doi:10.1073/pnas.2313332121)

B1: TPR t1 (parent)
chain: GACCAAUCUGCCCUCAGAGCUCGAGAACAUCUUCGGAUGCAGAGGAGGCAGGCUUCGGUGGCGCGAUAGCGCCAACGUCCUCAACCUCCAAUGCAUCCCACCACAUGAUGAUGCCUGAAGAGCCUUGGUUUUUUG

Variants of: B1
Experiment: polymerase ribozyme fitness, log enrichment relative to wild type (log ratio); higher = more active; in vitro selection for triplet polymerase activity
How it was run: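 Frozen incubation at −7 °C formed the core of a single, triplicate in vitro selection round applied to PCR-built, transcribed mutant libraries of each subunit of a heterodimeric triplet polymerase ribozyme. Extended constructs were gel-excised, captured with streptavidin beads and amplified by RT-PCR, and input and output libraries were Illumina-sequenced with a filter of ≥10 input reads and ≥1 read per output. Fitness is the logarithm of genotype enrichment relative to wild-type enrichment, with inverse-variance-weighted replicate averaging, and the logarithm is base 2.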
In the case of A46G C73U U87A A91C G113A, the “polymerase ribozyme fitness (log ratio)” value is reported as -2.54. In the case of G45C U126A, the “polymerase ribozyme fitness (log ratio)” value is reported as -2.8. In the case of G45U C56G G77A C101U U112C, the “polymerase ribozyme fitness (log ratio)” value is reported as 0.372. With G45U G135U the “polymerase ribozyme fitness (log ratio)” value was -2.03. In the case of G45U G71A, the “polymerase ribozyme fitness (log ratio)” value is reported as -2.09. For G45A C114U, the “polymerase ribozyme fitness (log ratio)” value was -2.37. For G44U G107A, the “polymerase ribozyme fitness (log ratio)” value was -6.9. In the case of G45A A46U U55C C89U U131A, the “polymerase ribozyme fitness (log ratio)” value is reported as -0.91. For G45U C85G G122A, the “polymerase ribozyme fitness (log ratio)” value was -3.83. For G45U U106A, the “polymerase ribozyme fitness (log ratio)” value was -1.76. For G47A C114A, the “polymerase ribozyme fitness (log ratio)” value was -2.59. For A46G U55G, the “polymerase ribozyme fitness (log ratio)” value was 0.201. With G45U A74G U132A the “polymerase ribozyme fitness (log ratio)” value was -2.04. With G45C U87C the “polymerase ribozyme fitness (log ratio)” value was -0.513. With A46U U109A the “polymerase ribozyme fitness (log ratio)” value was -6.04. In the case of G45C G93U A121U, the “polymerase ribozyme fitness (log ratio)” value is reported as -1.16. With G45C C114A the “polymerase ribozyme fitness (log ratio)” value was -2.66. With G45U C73U C79A the “polymerase ribozyme fitness (log ratio)” value was -2.93. In the case of G44U G51A, the “polymerase ribozyme fitness (log ratio)” value is reported as -5.35. In the case of A46U G110U G120C G122A, the “polymerase ribozyme fitness (log ratio)” value is reported as -5.9. For A46U G57C A84U C114U, the “polymerase ribozyme fitness (log ratio)” value was -3.16. With G47A G60U G93C C101A the “polymerase ribozyme fitness (log ratio)” value was -4.1. With A46U A103C C115G the “polymerase ribozyme fitness (log ratio)” value was -6.95. With A46U C79U U96A C115U C123G U132A the “polymerase ribozyme fitness (log ratio)” value was -2.94. In the case of A46G C64U, the “polymerase ribozyme fitness (log ratio)” value is reported as -0.426. In the case of A46U C104U, the “polymerase ribozyme fitness (log ratio)” value is reported as -0.991. For G44U C49A G77U G120C U130G, the “polymerase ribozyme fitness (log ratio)” value was -2.08. In the case of G45U C70A C123U, the “polymerase ribozyme fitness (log ratio)” value is reported as -1.23. For G45U G47A U116C, the “polymerase ribozyme fitness (log ratio)” value was -5.47. With A46U C64U C99U the “polymerase ribozyme fitness (log ratio)” value was -4.36. For G47A A50U C56A G69U G77C, the “polymerase ribozyme fitness (log ratio)” value was -1.54. For G45U U59G U112A, the “polymerase ribozyme fitness (log ratio)” value was -0.539. For G45A G69U C99U A111G, the “polymerase ribozyme fitness (log ratio)” value was -0.775. With G45A U59A C104U the “polymerase ribozyme fitness (log ratio)” value was -0.336. In the case of A46C G48U G113A, the “polymerase ribozyme fitness (log ratio)” value is reported as -3. In the case of G45U G52A C62U U96G, the “polymerase ribozyme fitness (log ratio)” value is reported as -2.4. For G44U C123U, the “polymerase ribozyme fitness (log ratio)” value was 0.929. With G45A G71A G113A C124U the “polymerase ribozyme fitness (log ratio)” value was -2.34. In the case of G47A G51A G71U C98U A105U U112G, the “polymerase ribozyme fitness (log ratio)” value is reported as -7.71. In the case of G45A C53G, the “polymerase ribozyme fitness (log ratio)” value is reported as -0.662. In the case of G44U G71U C104U U106A, the “polymerase ribozyme fitness (log ratio)” value is reported as -1.53. For G45U C123U G127U, the “polymerase ribozyme fitness (log ratio)” value was -1.39. With G44U G60C A91U A121G the “polymerase ribozyme fitness (log ratio)” value was -0.902. For A46U C62G C88A C124A U133G, the “polymerase ribozyme fitness (log ratio)” value was -4.11. In the case of G45C C72U A90U G128C, the “polymerase ribozyme fitness (log ratio)” value is reported as -4.85. For G47A G51A, the “polymerase ribozyme fitness (log ratio)” value was -4.37. With G44U U96A the “polymerase ribozyme fitness (log ratio)” value was -2.64. With G45A C123G the “polymerase ribozyme fitness (log ratio)” value was 0.984. With G44U G127C the “polymerase ribozyme fitness (log ratio)” value was -2.57. For G47A A90C U112A, the “polymerase ribozyme fitness (log ratio)” value was -2.17. For A46U C124A, the “polymerase ribozyme fitness (log ratio)” value was 0.552. With G47A C124U the “polymerase ribozyme fitness (log ratio)” value was 0.0616. In the case of G47A C53U, the “polymerase ribozyme fitness (log ratio)” value is reported as -1.23. With G45U G63A the “polymerase ribozyme fitness (log ratio)” value was -2.32. For G44U C62A, the “polymerase ribozyme fitness (log ratio)” value was -2.41. In the case of G45C U54C C73A U81A G93C A111C, the “polymerase ribozyme fitness (log ratio)” value is reported as -4.76. With A46C C56U G63A C114G G127C U129A the “polymerase ribozyme fitness (log ratio)” value was -5.93. In the case of G47A G60A C124G U133A, the “polymerase ribozyme fitness (log ratio)” value is reported as 1.3. In the case of A46G G61A A100C U132C, the “polymerase ribozyme fitness (log ratio)” value is reported as -0.683. With G45A C56G U87G C114G the “polymerase ribozyme fitness (log ratio)” value was -5.48. For G45U G63A U78G G120C, the “polymerase ribozyme fitness (log ratio)” value was -1.71. In the case of G47A C104A, the “polymerase ribozyme fitness (log ratio)” value is reported as -2.7. For G45C C70U A83C, the “polymerase ribozyme fitness (log ratio)” value was -1.86. For G45A C70G G110C, the “polymerase ribozyme fitness (log ratio)” value was -6.17. With G44U C53G G61C G93A the “polymerase ribozyme fitness (log ratio)” value was -2.01. With G45A U59G G60A A100U the “polymerase ribozyme fitness (log ratio)” value was -2.28. For A46U A74U A91G, the “polymerase ribozyme fitness (log ratio)” value was -3.52. In the case of G44U G45A U54A, the “polymerase ribozyme fitness (log ratio)” value is reported as -3.42. For G45C A100G G120A U133A, the “polymerase ribozyme fitness (log ratio)” value was -2.23. For G45A A84C, the “polymerase ribozyme fitness (log ratio)” value was -0.717. In the case of G45A A50U, the “polymerase ribozyme fitness (log ratio)” value is reported as -1.05. For G45U C73U U87A A105U G135C, the “polymerase ribozyme fitness (log ratio)” value was -2.69. For A46U G61A G110U G120C G122A, the “polymerase ribozyme fitness (log ratio)” value was -4.73. For A46U U92C A100U G113C, the “polymerase ribozyme fitness (log ratio)” value was -4.52. For G45U A84C C86A G117A, the “polymerase ribozyme fitness (log ratio)” value was -3.94. For A46U A121U, the “polymerase ribozyme fitness (log ratio)” value was 0.389. With G45U G51A G52U the “polymerase ribozyme fitness (log ratio)” value was -4.66. In the case of G45C U130C, the “polymerase ribozyme fitness (log ratio)” value is reported as -2.26. For G47A C49A C124U, the “polymerase ribozyme fitness (log ratio)” value was 0.655. For G44U C53A C70A, the “polymerase ribozyme fitness (log ratio)” value was -2.06. For G47A C64U G117U, the “polymerase ribozyme fitness (log ratio)” value was -4.27. For A46C C70U C101U, the “polymerase ribozyme fitness (log ratio)” value was -1.31. For G45A G61U C70U G110U U125C, the “polymerase ribozyme fitness (log ratio)” value was -3.2. With A46U G61A the “polymerase ribozyme fitness (log ratio)” value was 0.101.
